The data set deals with the molecule itself. The data set can be described thus: cryo-EM structure.

B1: band 3 (native, full-length, from human erythrocyte membrane) (natural protein, human (endogenous in red blood cells), UniProt P02730 1-911, looked up)
chain: MEELQDDYEDMMEENLEQEEYEDPDIPESQMEEPAAHDTEATATDYHTTSHPGTHKVYVELQELVMDEKNQELRWMEAARWVQLEENLGENGAWGRPHLSHLTFWSLLELRRVFTKGTVLLDLQETSLAGVANQLLDRFIFEDQIRPQDREELLRALLLKHSHAGELEALGGVKPAVLTRSGDPSQPLLPQHSSLETQLFCEQGDGGTEGHSPSGILEKIPPDSEATLVLVGRADFLEQPVLGFVRLQEAAELEAVELPVPIRFLFVLLGPEAPHIDYTQLGRAAATLMSERVFRIDAYMAQSRGELLHSLEGFLDCSLVLPPTDAPSEQALLSLVPVQRELLRRRYQSSPAKPDSSFYKGLDLNGGPDDPLQQTGQLFGGLVRDIRRRYPYYLSDITDAFSPQVLAAVIFIYFAALSPAITFGGLLGEKTRNQMGVSELLISTAVQGILFALLGAQPLLVVGFSGPLLVFEEAFFSFCETNGLEYIVGRVWIGFWLILLVVLVVAFEGSFLVRFISRYTQEIFSFLISLIFIYETFSKLIKIFQDHPLQKTYNYNVLMVPKPQGPLPNTALLSLVLMAGTFFFAMMLRKFKNSSYFPGKLRRVIGDFGVPISILIMVLVDFFIQDTYTQKLSVPDGFKVSNSSARGWVIHPLGLRSEFPIWMMFASALPALLVFILIFLESQITTLIVSKPERKMVKGSGFHLDLLLVVGMGGVAALFGMPWLSATTVRSVTHANALTVMGKASTPGAAAQIQEVKEQRISGLLVAVLVGLSILMEPILSRIPLAVLFGIFLYMGVTSLSGIQLFDRILLLFKPPKYHPDVPYVKRVKTWRMHLFTGIQIICLAVLWVVKSTPASLALPFVLILTVPLRRVLLPLIFRNVELQCLDADDAKATFDEEEGRDEYDEVAMPV
modifications: N-glycan site N642 (N-acetylglucosamine modelled close to N642)
B1: the stoichiometry N – broadly, a count of units in the complex or per binding partner – stood at 2.

The values are drawn from publication PMC9489475 (Nature structural & molecular biology, 2022).
